# Molecular target: T1, HicB (HicB-His) (Neisseria gonorrhoeae FA1090) (UniProt Q5F6D2)
# T1 sequence: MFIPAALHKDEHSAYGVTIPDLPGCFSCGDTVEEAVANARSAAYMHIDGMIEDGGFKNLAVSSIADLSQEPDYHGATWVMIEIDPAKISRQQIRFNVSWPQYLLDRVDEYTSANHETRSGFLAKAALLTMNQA
# Assay: competition
# Conditions: EMSA: 20 mM HEPES pH 7.6, 1 mM EDTA, 10 mM (NH4)2SO4, 1 mM DTT, 0.2% Tween-20, 30 mM KCl, 1.25 ng/uL calf thymus DNA, 30 min at 30 C
sequence,measurement,value
TTCACCCTTGCCTGTGCTGCCAAAGCAGCCATCGGCGGTTTTGCTTTCTGTTCCACTTTCCGTCGCGTTACCGCGCCCGGCCGTTAACCGGCATTCTACCCTGCGGAGCCCGGACTTTCCTCCCCGTAT (double strand) [rnpB fragment],binding,no binding
